{"source": "patent US9303249B2", "about": "“High concentration α-glucosidase compositions for the treatment of Pompe disease” (Amicus Therapeutics, Inc., priority 2012, dated 2016)", "format_in_all_cases": "in vivo, mouse", "key": {"GAA KO mice [1]": {"system": "GAA KO mice", "experiment": "Tissue rhGAA activity after repeat SQ dosing between the shoulder blades (Example 13)", "conditions": "Lumizyme 20 mg/kg +/− 1-DNJ 30 mg/kg SQ, 4 doses (Mon and Thu), 3 days after last dose", "method": "12-week old male GAA KO mice in groups of 7 were used in the present study. Each group of mice was administered one of the following treatments:\n(2) Lumizyme® alone (20 mg/kg) delivered subcutaneously (SQ); or\n(3) Co-formulated Lumizyme® (20 mg/kg) and 1-DNJ (30 mg/kg) SQ.\nEach of the treatments were administered to their respective treatment group for a period of 2 weeks. The treatments were administered on Monday and Thursday of each week. SQ injections were administered between the shoulder blades of each mouse receiving treatment. A total of 4 doses was administered to each study animal. Diphenhydramine was administered intraperitoneally (IP) before the 3rd and 4th doses.\nTissue samples were collected to determine rhGAA uptake 3 days following the last dose of the study (i.e., 3 days post dose 4). Tissue samples included heart, diaphragm, tongue, brain, spleen, liver, biceps, triceps, quadriceps, soleus, gastrocnemius, ventral skin and dorsal skin from the SQ injection site. Tissue samples were also collected to determine glycogen concentration 14 days following the last dose of the study (i.e., 14 days post dose 4)."}, "GAA KO mice [2]": {"system": "GAA KO mice", "experiment": "Tissue GAA activity after repeat SQ with varying 1-DNJ (Example 16)", "conditions": "Lumizyme 20 mg/kg SQ alone, 4 doses, 3 days after last dose", "method": "(§1) 14-week old male GAA KO mice in groups of 7 were used in the present study. Each group of mice was administered one of the following treatments:\n(2) Lumizyme® alone (20 mg/kg) delivered subcutaneously (SQ);\n(3) Co-formulated Lumizyme® (20 mg/kg) and 1-DNJ (3 mg/kg) SQ.\n(4) Co-formulated Lumizyme® (20 mg/kg) and 1-DNJ (10 mg/kg) SQ.\n(5) Co-formulated Lumizyme® (20 mg/kg) and 1-DNJ (30 mg/kg) SQ.\n(§2) Each of the treatments was administered to their respective treatment group for a period of 2 weeks. The treatments were administered on Monday and Thursday of each week. SQ injections were administered between the shoulder blades of each mouse receiving treatment. A total of 4 doses were administered to each study animal.\n(§3) Tissue samples were collected to determine rhGAA uptake 3 days following the last dose of the study (i.e., 3 days post dose 4). Tissue samples included heart, tongue, diaphragm, triceps, quads, gastrocnemius, ventral skin and dorsal skin from the SQ injection site. Tissue samples were also collected to determine glycogen concentration 14 days following the last dose of the study (i.e., 14 days post dose 4).\n(§4) FIGS. 47-54 show tissue GAA activity 3 days following the final administration, and glycogen levels 14 days following the final administration. GAA activities in tissues were determined using a 4-MUG fluorogenic substrate assay. Glycogen levels were determined using a glycogen assay (see Example 9 for method). Lumizyme® alone administered subcutaneously led to uptake of enzyme in all investigated tissues following repeat administrations."}, "GAA KO mice [3]": {"system": "GAA KO mice", "experiment": "Tissue glycogen reduction after repeat SQ with varying 1-DNJ (Example 16)", "conditions": "Lumizyme 20 mg/kg SQ alone, 4 administrations, 14 days after last", "method": "as §1, §2, §3, §4"}}}
{"substance": "Lumizyme®: alglucosidase alfa, recombinant human acid α-glucosidase from Genzyme Corporation", "values": [{"measurement": "rhGAA activity uptake", "setting": "GAA KO mice [1]; Biceps", "result": 56.0, "unit": "nmol/mg/h"}, {"measurement": "rhGAA activity uptake", "setting": "GAA KO mice [1]; Diaphragm", "result": 4.2, "unit": "nmol/mg/h"}, {"measurement": "rhGAA activity uptake", "setting": "GAA KO mice [1]; Gastrocnemius", "result": 2.0, "unit": "nmol/mg/h"}, {"measurement": "rhGAA activity uptake", "setting": "GAA KO mice [1]; Heart", "result": 1.9, "unit": "nmol/mg/h"}, {"measurement": "rhGAA activity uptake", "setting": "GAA KO mice [1]; Quadriceps", "result": 2.1, "unit": "nmol/mg/h"}, {"measurement": "rhGAA activity uptake", "setting": "GAA KO mice [1]; Skin", "result": 75, "unit": "nmol/mg/h"}, {"measurement": "rhGAA activity uptake", "setting": "GAA KO mice [1]; Soleus", "result": 2.7, "unit": "nmol/mg/h"}, {"measurement": "rhGAA activity uptake", "setting": "GAA KO mice [1]; Tongue", "result": 2.7, "unit": "nmol/mg/h"}, {"measurement": "rhGAA activity uptake", "setting": "GAA KO mice [1]; Triceps", "result": 88.0, "unit": "nmol/mg/h"}, {"measurement": "GAA Activity", "setting": "GAA KO mice [2]; Biceps", "result": 45.9, "unit": "nmol/mg/h"}, {"measurement": "GAA Activity", "setting": "GAA KO mice [2]; Diaphragm", "result": 10.6, "unit": "nmol/mg/h"}, {"measurement": "GAA Activity", "setting": "GAA KO mice [2]; Gastrocnemius", "result": 1, "unit": "nmol/mg/h"}, {"measurement": "GAA Activity", "setting": "GAA KO mice [2]; Heart", "result": 1.9, "unit": "nmol/mg/h"}, {"measurement": "GAA Activity", "setting": "GAA KO mice [2]; Quadriceps", "result": 1.3, "unit": "nmol/mg/h"}, {"measurement": "GAA Activity", "setting": "GAA KO mice [2]; Skin", "result": 43.9, "unit": "nmol/mg/h"}, {"measurement": "GAA Activity", "setting": "GAA KO mice [2]; Soleus", "result": 0.9, "unit": "nmol/mg/h"}, {"measurement": "GAA Activity", "setting": "GAA KO mice [2]; Tongue", "result": 2.3, "unit": "nmol/mg/h"}, {"measurement": "GAA Activity", "setting": "GAA KO mice [2]; Triceps", "result": 151.3, "unit": "nmol/mg/h"}, {"measurement": "Glycogen (% Reduction)", "setting": "GAA KO mice [3]; Biceps", "result": 45, "unit": "%"}, {"measurement": "Glycogen (% Reduction)", "setting": "GAA KO mice [3]; Diaphragm", "result": 8, "unit": "%"}, {"measurement": "Glycogen (% Reduction)", "setting": "GAA KO mice [3]; Gastrocnemius", "result": 10, "unit": "%"}, {"measurement": "Glycogen (% Reduction)", "setting": "GAA KO mice [3]; Heart", "result": 15, "unit": "%"}, {"measurement": "Glycogen (% Reduction)", "setting": "GAA KO mice [3]; Quadriceps", "result": 9, "unit": "%"}, {"measurement": "Glycogen (% Reduction)", "setting": "GAA KO mice [3]; Skin", "result": 15, "unit": "%"}, {"measurement": "Glycogen (% Reduction)", "setting": "GAA KO mice [3]; Tongue", "result": 10, "unit": "%"}, {"measurement": "Glycogen (% Reduction)", "setting": "GAA KO mice [3]; Triceps", "result": 64, "unit": "%"}]}
